We go through one substance from article PMC2614139.

This test concerns the target GCaMP2 (original protein with the N-terminal hexahistidine tag and RSET module) (not stated | Aequorea victoria). Briefly: AUC.

In the case of “GCaMP2 (original protein with the N-terminal hexahistidine tag and RSET module)”, the stoichiometry N (usually the number of molecules, sites or subunits per partner or assembly) is 2.
